Changes are numbered by the printed parent chain. One block for each binder: values may come before it.
Assays:
[1] = biological target: epidermal growth factor receptor (EGFR), Example 4A analyte (UniProt P00533); experiment: SPR (Biacore 8K+), fusion protein amine-coupled to CM5, EGFR 200 nM, report point late binding
[2] = biological target: EGFR (SinoBiological, 10001-H08H) (UniProt P00533); experiment: SPR (Biacore 8K+), fusion protein amine-coupled to CM5, EGFR 200 nM
[3] = biological target: trastuzumab-GFP (prepared in-house); experiment: SPR (Biacore 8K+), fusion protein amine-coupled to CM5, Fc block 2 uM, then trastuzumab-GFP 1 uM

B1: Candidate 4A-5: vh167 fusion protein (SEQ ID NO:169) (VHH)
VHH: QVQLQQSGGGSVQAGGSLRLSCTISGRTFSSYAMGWFRQRPGKEREFVAAINWSSGSTYYADSVKGRFTISRDNAKNTVYLQMNSLKPEDTAVYYCAAGYQINSGNYNFKDYEYDYWGQGTQVTVSS
Binding capacity EGFR (200 nM) (RU) [1]: 2350 RU

B4: Candidate 4B-6: vh113 fusion protein (SEQ ID NO:173) (VHH)
VHH: QVQLQQSGGGSVQAGGSLRLSCTISGRTSINPYMAWFRQRPGKEREFVAAISSGGVYTYYADSVKGRFTISRDNAKNTVYLQMNSLKPEDTAVYYCAADFRRGGNWNVDPFRYDYDYWGQGTQVTVSS
trastuzumab-eGFP response in analyte binding late (1 µM, RU) [3]: 3910 RU

Second part, the binder after the results:

EGFR response in analyte binding late (200 nM, RU) [2]: 1900 RU
B2: Candidate 4B-4: vh167 fusion protein (SEQ ID NO:175) (VHH)
VHH: B1 VHH

trastuzumab-eGFP response in analyte binding late (1 µM, RU) [3]: 4300 RU
B3: Candidate 4B-5: vh60 fusion protein (SEQ ID NO:172) (VHH)
VHH: B4 VHH with Q6E, S11L, A14P, T23A, I24A, R40A, E44Q, A61T, N77T, D116Q

— patent EP4541814A1
